What was measured:
Assay in all cases: pull-down binding Z-score (relative to library population); higher = stronger binding
Details in all cases: RNA library: Library-2
[1] = test system: TO-3-N3 (biotin conjugate)
Summary of the method: (§1)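 To score binding, a beads-only signal was subtracted, barcoded replicate probes were averaged with the highest and lowest dropped, and the value was converted to a Z-score using the library mean and standard deviation. The input was 1 μg of Cy5- or Cy3-end-labelled RNA library, heat-folded in phosphate/NaCl/KCl buffer and mixed for 60 min at 25 °C with streptavidin beads carrying 100 pmol of biotin-conjugated small molecule. Bound RNA was eluted in hot SDS and hybridised to a DNA barcode microarray at 55.5 °C for 20 h.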

[2] = test system: TO-3-N3-2 (biotin conjugate)
Summary of the method: as §1

[3] = test system: TO-N3 (biotin conjugate)
Summary of the method: as §1

[4] = test system: TO-N3-2 (biotin conjugate)
Summary of the method: as §1

Sequence	pull-down binding Z-score [1]	pull-down binding Z-score [2]	pull-down binding Z-score [3]	pull-down binding Z-score [4]
AGUCAUAGUCAGUUAGGUGGUUUACAUCUACUGAUUGGACU	-1.18	-0.281	-1.35	-0.775
CUGGUCCAUGCUCAUACCCAAGCAGAAAGUGGCAGGCCCUCUUUGUAUCAGAAUGGACCAG [IAV_invivo_NS1_NEP_8_Motif_8+IAV_invivo_NS1_NEP_8_Motif_8]	-0.528	-0.24	-0.453	0.562
UGUGGACAUGUCAAUGACAUAUGGACAACAGUUUGGUCCAACUUAUUUGGAUGGAGCUGAUGUUACUAAAAUAAAACCUCAUAAUUCACA	-0.618	-0.162	-0.544	-0.453
GCCAUUGCCGGU [IAV_invivo_HA_4_Motif_15+IAV_invivo_HA_4_Motif_15]	-0.443	-0.49	-0.593	-0.0811
GGUUCAACUCUCCCUAGGAGGUCUGGAGCC [IAV_invivo_NP_5_Motif_11+IAV_invivo_NP_5_Motif_11]	-0.418	-0.309	-0.225	0.0598
GGGUAGGGUUUGGGGGAGAGUGUGGGCUGGGGUUCAGGGACA [pre-miRNA-1229_SNP_FL]	6.68	7.5	6.27	4.79
UGUUUUCUACAAAGAAAACA [SHAPE_invivo_SARS-CoV-2_Motif_122]	-0.462	-0.34	-0.865	-1.85
GAAAAGAACAAUCAAGGGUACACACCACUGGUUGUUACUCACAAUUUUGACUUCACUUUUAGUUUUAGUCCAGAGUACUCAAUGGUCUUUGUUCUUUUU	-0.824	-0.0313	-0.121	0.0117
CUGGGGGCAAUCAGUUUCUGG [IAV_invivo_HA_4_Motif_20+IAV_invivo_HA_4_Motif_20]	1.05	-0.0228	0.946	-0.107
UUAAGUGACACACUUAA	-0.711	-0.663	-1.18	-1.49
CUUGAUGAUUUUGUUGAAAUAAUAAAAUCCCAAG	-0.466	-0.266	-0.636	-0.743
GGUUUAGCUGCUGUUAAUAGUGUCCCUUGGGAUACUAUAGCUAAUUAUGCUAAGCC	0.621	-0.323	0.141	-0.225
UCUAAAUGAAACUCUUGUUACAAUGCCACUUGGCUAUGUAACACAUGGCUUAAAUUUGGA	-1.01	-0.364	-1.16	-1.03
AUGGCCCCGAUUUCAGCUAU [SHAPE_invivo_SARS-CoV-2_Motif_151]	-0.51	-0.281	-0.668	-0.0238
GAGUGCUAUCUAACCUUAACUUGCCUGGUUGUGAUGGUGGCAGUUUGUAUGUAAAUAAACAUGCAUUCCACACACCAGCUUUUGAUAAAAGUGCUU [DMSMaPseq_invitro_SARS-CoV-2_Motif_343]	-0.749	-0.487	-0.637	-0.238
AUGGUCUUUGUUCUUUUUUUUGUAUGAAAAUGCCUUUUUACCUUUUGCUAUGGGUAUUAUUGCUAU	-0.455	0.135	-0.507	-0.569
UCUGCACUGUUAGCGGGUACAAUCACUUCUGGUUGGACCUUUGGUGCAGG	-0.66	-0.38	-0.815	-1.07

Sequence	pull-down binding Z-score [1]	pull-down binding Z-score [2]	pull-down binding Z-score [3]	pull-down binding Z-score [4]
GUUGGAUAAUGAUGCACUCAACAACAUUAUCAAC	-0.974	-0.75	-1.35	-0.9
CACCAUCUGGUG [DMSMaPseq_invitro_SARS-CoV-2_Motif_188]	0.319	-0.158	0.0701	-1.15
AACAGGAGUCACCUUUUGUU	-0.0743	-0.0265	-0.267	-0.716
GGCUAUGGUUUCCAGAGCC [IAV_invivo_PB1_2_Motif_37+IAV_invivo_PB1_2_Motif_37]	0.417	-0.179	0.285	-0.356
CCUGUGAACAGAUUGCUGACUCCCAGCAUCGGUCUCAUAGG [IAV_invivo_M1_M2_7_Motif_10+IAV_invivo_M1_M2_7_Motif_10]	-0.767	-0.605	-0.943	-0.458
CUCUCAUCGAUCUCCAAGAACUUGGAAAGUAUGAGCAG [SHAPE_invitro_SARS-CoV-2_Motif_456]	-0.197	-0.286	-0.095	0.281
UCAUCAGGAGAUGCCACAACUGCUUAUGCUAAUAGUGUUUUUAACAUUUGUCAAGCUGUCACGGCCAAUGUUAAUGCACUUUUAUCUACUGAUGG [DMSMaPseq_invitro_SARS-CoV-2_Multi_45_ComplexLevel_1]	-0.641	-0.46	-0.561	-0.306
CUGUUAAUGUAGCAUUUGAGCUUUGGGCUAAGCGCAACAUUAAACCAG	0.0322	-0.268	0.38	0.335
GUGCCCAAAAUACGUCAGGAGUGC [IAV_invivo_HA_4_Motif_13+IAV_invivo_HA_4_Motif_13]	-0.325	0.129	0.0361	0.402
UUAAUUGAAUUGUGCGUGGAUGAGGCUGGUUCUAAAUCACCCAUUCAGUACAUCGAUAUCGGUAAUUAUACAGUUUCCUGUUUACCUUUUACAAUUAA [DMSMaPseq_invitro_SARS-CoV-2_Multi_84_ComplexLevel_1]	-0.244	0.0361	-0.239	-0.403
AAUAUUGCUUUGCUUGUACAGUAAGUGACAACAGAUGUUUCAUCUCGUUGACUUUCAGGUUACUAUAGCAGAGAUAUU [DMSMaPseq_invitro_SARS-CoV-2_Motif_488]	-0.135	0.152	-0.0703	0.237
GCGCUGCCAGAAACUGGCCCCAGCGC [bulge-CCC]	-0.229	-0.182	-0.283	0.6
UGCUUUCGUGGUA	0.137	-0.292	0.0358	-0.505
AAGAAGCUGCGCUGUGCACCUUUUU [DMSMaPseq_invitro_SARS-CoV-2_Motif_178]	-0.433	-0.354	-0.0759	0.126
GCAAGCUUCGAUAAUUUUAAGUUUGU [SHAPE_invitro_SARS-CoV-2_Motif_120]	1.04	0.402	0.816	-0.0709
GUAAGAGAAUUCCUUAC	-0.366	-0.0559	-0.531	-0.727
